Measured values taken from publication PMC7939140.

Biological target: BG505SOSIP.664 gp140 NFL (native flexible linker version of wild type) (HIV-1 (BG505 isolate, clade A))
Assay: native gel or EMSA

## BG505SOSIP.664 gp140 NFL (native flexible linker version of wild type) (natural protein)
  stoichiometry N: 3
